According to publication PMC2791397:

Molecular target: GST-Hmt1p (S. cerevisiae) (UniProt P38074)
Sequence (P38074 whole entry): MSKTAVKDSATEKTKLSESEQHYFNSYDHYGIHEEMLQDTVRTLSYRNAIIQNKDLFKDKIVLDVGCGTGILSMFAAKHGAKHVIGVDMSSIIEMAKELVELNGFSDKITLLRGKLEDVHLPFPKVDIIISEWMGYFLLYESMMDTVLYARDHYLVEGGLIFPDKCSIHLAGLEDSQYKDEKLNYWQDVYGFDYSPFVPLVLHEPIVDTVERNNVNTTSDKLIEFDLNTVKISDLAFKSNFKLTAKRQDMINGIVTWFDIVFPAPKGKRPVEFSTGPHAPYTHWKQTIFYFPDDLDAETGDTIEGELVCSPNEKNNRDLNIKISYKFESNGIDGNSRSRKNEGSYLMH

KM of Hmt1p-catalysed methylation of the H4 peptide (3H-SAM, Hanes/Wolffe plot): 0.059 µM
Substance: synthetic histone H4 peptide (residues 1-18) with acetyllysine at position 8 (from UniProt P02309 2-19)
